{"source": "patent US5759769", "target": "CLTB-106 (negative control)", "assay": "ELISA, peptide at 1 ug per well, 2F5 at 40 ng per well; negative control"}
{"substance": "human neutralizing monoclonal antibody 2F5", "values": [{"measurement": "Absorbance (450 nm) (absorbance at 450 nm)", "value": 0.07}]}
